The text below walks through data of US20260167731A1 (DOMAIN THERAPEUTICS, published 2026).

For experiment [1], the target named is T1, human CCR8 (human, UniProt P51685 1-355). Kind of experiment: cell-based or functional assay.
Experiment [2] concerns the target T1, human CCR8. Kind of experiment: cell-based or functional assay. This is another data set of the same source.
The target in experiment [3] is T1, human CCR8. Kind of experiment: flow cytometry, inhibition of hCCL1-AF647 binding to hCCR8 CHO cells. A digest of the protocol: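 hCCR8-transfected CHO cells preincubated 30 min at 4 °C with anti-CCR8 mAb from 10 μg/mL, 1/3 dilutions, 8 concentrations. Bound CCL1 quantified by flow cytometry. IC₅₀ from sigmoidal variable-slope fit.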
(Flow cytometry measures light scatter and fluorescence of single cells or particles in a stream.)

Experiment [4] deals with T1, human CCR8. Kind of experiment: flow cytometry, hCCR8 transfected CHOK1 cells. The method in brief:
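Bound mAb detected with Alexa Fluor 488 anti-mouse IgG or PE anti-human IgG Fc (30 min, 4 °C) by flow cytometry; isotype mAbs controlled unspecific binding.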

The target in experiment [5] is T1, human CCR8. Kind of experiment: cell-based or functional assay. This is another data set of the same source.
For experiment [6], the target named is T1, human CCR8. Kind of experiment: cell-based or functional assay. This is another data set of the same source.
For experiment [7], the target named is pm1, modified CCR8 related peptide (human, sulfated tyrosine at Y15). Kind of experiment: ELISA on coated CCR8 peptide (500 ng/mL), OD [cont.]. A digest of the protocol:
(§1)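 Anti-CCR8 mAbs tested at 1 μg/mL and then diluted 1/10 on CCR8-related peptides coated at 500 ng/mL in carbonate/bicarbonate buffer, 90 min at room temperature. Bound antibody developed with TMB for 15 min; optical density read as mAb reactivity.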
On the technique in general: In an ELISA, binding on a coated surface is turned into a signal by an enzyme label.

For experiment [8], the target named is T2, pwt1, unmodified CCR8 related peptide (human, none (non-sulfated Y15, Y16, Y17)).
T2 construct: First 34 amino acids of human CCR8, synthetic; also called unmodified peptide
The experiment is described as above. The method in brief: as §1

In experiment [9] the target is pm6, modified CCR8 related peptide (human, sulfated tyrosines at Y16 and Y17). The experiment is described as above. The method in brief:
as §1

Experiment [10] deals with pm4, modified CCR8 related peptide (human, sulfated tyrosines at Y15 and Y16). Described as above. A digest of the protocol:
as §1

Experiment [11] concerns the target pm3, modified CCR8 related peptide (human, sulfated tyrosine at Y17). Described as above. The method in brief:
as §1

The target in experiment [12] is pm2, modified CCR8 related peptide (human, sulfated tyrosine at Y16). Described as above. The method in brief:
as §1

Experiment [13] addresses pm8, modified CCR8 related peptide (human, sulfated tyrosines at Y15, Y16 and Y17). The description is as above. A digest of the protocol: as §1
The target in experiment [14] is pm5, modified CCR8 related peptide (human, sulfated tyrosines at Y15 and Y17). The description is as above. A digest of the protocol: as §1
For experiment [15], the target named is T1, human CCR8. Kind of experiment: cell-based or functional assay. The source holds these as a separate data set.
Experiment [16] concerns the target T1, human CCR8. Kind of experiment: cell-based or functional assay. The source holds these as a separate data set.

Values joined by “and” are separate entries in the source; they are usually repeats but may differ in a detail not shown here. Equal values may be shown once.

Sequence of pm4, modified CCR8 related peptide (human, sulfated tyrosines at Y15 and Y16) (peptide, as listed by the source): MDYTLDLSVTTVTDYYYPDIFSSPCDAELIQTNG
Sequence of pm3, modified CCR8 related peptide (human, sulfated tyrosine at Y17) (peptide, as listed by the source): as above
T2 sequence (peptide, as listed by the source): as above
Sequence of pm1, modified CCR8 related peptide (human, sulfated tyrosine at Y15) (peptide, as listed by the source): as above
Sequence of pm5, modified CCR8 related peptide (human, sulfated tyrosines at Y15 and Y17) (peptide, as listed by the source): as above
Sequence of pm8, modified CCR8 related peptide (human, sulfated tyrosines at Y15, Y16 and Y17) (peptide, as listed by the source): as above
Sequence of pm2, modified CCR8 related peptide (human, sulfated tyrosine at Y16) (peptide, as listed by the source): as above
Sequence of pm6, modified CCR8 related peptide (human, sulfated tyrosines at Y16 and Y17) (peptide, as listed by the source): as above

B1: anti-CCR8 mAb 2-1 (antibody, V domains shown)
VH: KVQLQQSGPELVKPGASVKISCKTSGYTFTEYTIHWVQQIHGKSPEWIGGINPNGDTRYDQKFKGKATLTIDKSSSTAYMELRSLTSEDSAVYYCARVARFYGISPYAMDYWGQGTSVTVSS
VL: DVVMTQTPLSLPVSLGDQASISCRCTQSLLHSNGDTYLHWYLQKPGQSPNLLIYKVSNRFSGVPDRFSGSGSGTDFTLKINRVEAEDLGVYFCSQSTHVPYTFGGGTNLEIK
In the case of B1, in the experiment with human CCR8 [1], the “hCCL1 (100 nM) residual response in %, Protocol #2, mAb 0.08 µg/mL (0.53 nM)” value was 101%; the “hCCL1 (100 nM) residual response in %, Protocol #2, mAb 0.4 µg/mL (2.67 nM)” value was 93%; the “hCCL1 (100 nM) residual response in %, Protocol #2, mAb 10 µg/mL (66.7 nM)” value was determined as 100%; the “hCCL1 (100 nM) residual response in %, Protocol #3, mAb 0.05 µg/mL (0.33 nM)” value turned out to be 92%. Moreover, in the experiment with human CCR8 [1], the “hCCL1 (100 nM) residual response in %, Protocol #3, mAb 0.5 µg/mL (3.33 nM)” value stood at 81% and the “hCCL1 (100 nM) residual response in %, Protocol #3, mAb 5 µg/mL (33.3 nM)” value turned out to be 73%. The “IC50, CCL1 induced hCCR8 Gi2 signaling (BRET, HEK-293)” value (“IC50 … (BRET, HEK-293)” for short) in the experiment with human CCR8 [2] is 0.462 nM and 0.069 µg/mL. For the same molecule, the IC50 with human CCR8 [3] was 1.29 µg/mL and 8.62 nM. In addition, in the experiment with human CCR8 [4], the “% positive cells” value came out at 85.7% and the “MFI fold change to isotype ctrl” value came to 9.8 fold. Moreover, in the experiment with human CCR8 [5], the “IC50, CCL1 induced hCCR8 Gi2 signaling (BRET) at pH 6.5” value was 0.051 µg/ml and 0.34 nM; the “IC50, CCL1 induced hCCR8 Gi2 signaling (BRET) at pH 7.4” value was 0.059 µg/ml and 0.396 nM. Further, the “Top plateau values in presence of 5 µg/mL mAb (% of hCCL1 (100 nM)), protocol #3” value with human CCR8 [6] amounted to 663%. The binding result in experiment [7] is listed as “binds”. Besides, the binding result in experiment [8] is reported as “binds”. In addition, the binding result in experiment [9] was “binds”. In addition, the binding result in experiment [10] is recorded as “binds”. Besides, in experiment [11], the binding result is “binds”. The binding result in [12] is “binds”. Moreover, the binding result in experiment [13] was “binds”. For the same molecule, the binding result in [14] is recorded as “binds”.

B2: anti-CCR8 mAb 2-2 (antibody, V domains shown)
VH: QVQLKESGPGLVAPSQSLSITCTVSGLSMNDYVVTWIRQPPGKGLEWLGVIWGGGNTYYNSDLKSRLSITKDNSKSQVFFKMSSLQTDDTAVYYCARRHRDYALDYWGQGISVTVSS
VL: DVVMTQTPLSLPVSLGDQASISCRSSQSLVYSNGNTYLHWYLQKPGQSPKLLIYKVSNRFSGVPDRFSGSGSGTDFTLKISRVEAEDLGVYFCSQSTYVPPTFGGGTKLEIK
B2: in the experiment with human CCR8 [1], the “hCCL1 (100 nM) residual response in %, Protocol #2, mAb 0.08 µg/mL (0.53 nM)” value came to 99%; the “hCCL1 (100 nM) residual response in %, Protocol #2, mAb 0.4 µg/mL (2.67 nM)” value is 97%; the “hCCL1 (100 nM) residual response in %, Protocol #2, mAb 10 µg/mL (66.7 nM)” value came out at 97%; the “hCCL1 (100 nM) residual response in %, Protocol #3, mAb 0.05 µg/mL (0.33 nM)” value was 99%. In the experiment with human CCR8 [1], the “hCCL1 (100 nM) residual response in %, Protocol #3, mAb 0.5 µg/mL (3.33 nM)” value was found to be 84% and the “hCCL1 (100 nM) residual response in %, Protocol #3, mAb 5 µg/mL (33.3 nM)” value was 75%. In addition, in the experiment with human CCR8 [2], the “IC50 … (BRET, HEK-293)” value was 0.143 µg/mL and 0.954 nM. Further, the IC50 in the experiment with human CCR8 [3] was 2.65 µg/mL and 15.2 nM. In addition, in the experiment with human CCR8 [4], the “% positive cells” value was found to be 85.2% and the “MFI fold change to isotype ctrl” value turned out to be 11.9 fold. Also, in the experiment with human CCR8 [5], the “IC50, CCL1 induced hCCR8 Gi2 signaling (BRET) at pH 6.5” value was 0.414 µg/ml and 2.76 nM; the “IC50, CCL1 induced hCCR8 Gi2 signaling (BRET) at pH 7.4” value was 0.359 µg/ml and 2.4 nM. Also, in the experiment with human CCR8 [6], the “Top plateau values in presence of 5 µg/mL mAb (% of hCCL1 (100 nM)), protocol #3” value turned out to be 133%. Besides, the binding result in experiment [7] was “binds”. Further, the binding result in experiment [8] was “binds”. Moreover, the binding result in [9] is listed as “binds”. The binding result in experiment [10] is “binds”. Besides, the binding result in [11] is on record as “binds”. Moreover, the binding result in [12] is recorded as “binds”. In addition, the binding result in experiment [13] is “binds”. In addition, in [14], the binding result is recorded as “binds”.

B3: anti-CCR8 mAb 2-10 (antibody, V domains shown)
VH: QVQVQQSGAELARPGASVKMSCKASGYTFTTYAMHWVKQRPGQGLEWIGHINPSSGYSNYNQKFKDKATLTADKSSSTAYMQLSSLTSEDSAVYYCARSEVRRGYFDVWGAGTTVTVSS
VL: DIQMTQTTSSLSASLGDRVTISCRTSQDIRNYLNWYQQKPDGTVKLLISYTSRLHSGVPSRFSGSGSGTDYSLTISNLEQEDFATYFCQQGNTLPPTFGGGTRVEIK
Take B3: the “hCCL1 (100 nM) residual response in %, Protocol #2, mAb 0.08 µg/mL (0.53 nM)” value with human CCR8 [1] was 52%. Besides, in the experiment with human CCR8 [1], the “hCCL1 (100 nM) residual response in %, Protocol #2, mAb 0.4 µg/mL (2.67 nM)” value worked out at 68%. Moreover, the “hCCL1 (100 nM) residual response in %, Protocol #2, mAb 10 µg/mL (66.7 nM)” value with human CCR8 [1] was found to be 53%. For the same molecule, the “hCCL1 (100 nM) residual response in %, Protocol #3, mAb 0.05 µg/mL (0.33 nM)” value with human CCR8 [1] turned out to be 76%. For the same molecule, the “hCCL1 (100 nM) residual response in %, Protocol #3, mAb 0.5 µg/mL (3.33 nM)” value with human CCR8 [1] came out at 62%. Moreover, the “hCCL1 (100 nM) residual response in %, Protocol #3, mAb 5 µg/mL (33.3 nM)” value in the experiment with human CCR8 [1] was determined as 59%. The “IC50 … (BRET, HEK-293)” value with human CCR8 [2] is 0.004 µg/mL and 0.029 nM. Besides, in the experiment with human CCR8 [3], the IC50 was 0.22 µg/mL and 1.46 nM. The “% positive cells” value with human CCR8 [4] is 77%. The “MFI fold change to isotype ctrl” value with human CCR8 [4] came out at 9.2 fold. Moreover, in the experiment with human CCR8 [6], the “Top plateau values in presence of 5 µg/mL mAb (% of hCCL1 (100 nM)), protocol #3” value worked out at 948%. For the same molecule, the binding result in experiment [7], in experiment [8], in experiment [9], in [10], in experiment [11] and in experiment [12] was “binds” in each case. Moreover, the binding result in experiment [13] and in [14] was “binds” throughout.

B4: chimeric anti-CCR8 mAb 2-18 (antibody, human IgG1, kappa)
heavy: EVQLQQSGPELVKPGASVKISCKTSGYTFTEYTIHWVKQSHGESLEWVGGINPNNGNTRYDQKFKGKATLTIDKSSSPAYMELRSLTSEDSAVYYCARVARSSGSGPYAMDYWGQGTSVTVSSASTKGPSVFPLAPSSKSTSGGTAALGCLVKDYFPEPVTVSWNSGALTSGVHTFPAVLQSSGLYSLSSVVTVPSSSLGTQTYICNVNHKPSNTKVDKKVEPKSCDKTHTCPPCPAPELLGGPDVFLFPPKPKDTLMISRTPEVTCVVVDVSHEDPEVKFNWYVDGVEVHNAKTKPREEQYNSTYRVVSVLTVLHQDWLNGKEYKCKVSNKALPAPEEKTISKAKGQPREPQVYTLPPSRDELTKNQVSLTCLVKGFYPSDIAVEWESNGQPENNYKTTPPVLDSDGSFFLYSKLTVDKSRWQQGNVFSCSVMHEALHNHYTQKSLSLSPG
light: DVVMTQTPLSLPVSLGDQASISCRCTQSLLHTNGDTYLHWYLQKPGQSPKLLIYKVSNRFSGVPDRFSGSGSGTDFTLKISRVEAEDLGVYFCSQSTHVPYTFGGGTKLEIKRTVAAPSVFIFPPSDEQLKSGTASVVCLLNNFYPREAKVQWKVDNALQSGNSQESVTEQDSKDSTYSLSSTLTLSKADYEKHKVYACEVTHQGLSSPVTKSFNRGEC
Turning to B4, in the experiment with human CCR8 [15], the “ADCC % Max lysis, HUT78 targets, NK cells Donor 3” value is 25%; the “ADCC % Max lysis, HUT78 targets, NK cells Donor 4” value worked out at 28%; the “ADCC EC50, HUT78 targets, NK cells Donor 3” value was 218 pM; the “ADCC EC50, HUT78 targets, NK cells Donor 4” value was found to be 53 pM. Besides, the “ADCP % Max of phagocytosis, HUT78 targets, monocyte-derived macrophages Donor 9” value in the experiment with human CCR8 [16] came out at 7.27%.

One may read the IC50 as the concentration that gives 50% inhibition. Lower therefore signals greater potency in that assay.
